Where two headings read alike, the source gives them in different places. Numbered stars: 1 amine (or outer) side, 2 acyl side, 3 side chain; on linkers, the order of the positions; unused ones are H or OH. Bridge positions count the residues as written; N and C are the ends. Square brackets hold non-standard residues; d marks the D form. Peptide text beside a SMILES is read from it. I, II: the chains in the order shown. * marks the point of attachment. X3 = O=C(CCCC(=O)NCCC(=O)[*:1])NCCOCCOCCN(CC(=O)[*:2])CC(=O)[*:3]; TATA = O=C(CC[*:1])N1CN(C(=O)CC[*:2])CN(C(=O)CC[*:3])C1; Dolaproine = CO[C@@H]([C@@H]1CCCN1)[C@@H](C)C(=O)O; Dil = CC[C@H](C)[C@H](NC)[C@@H](CC(=O)O)OC; X2 = O=C(CCCC(=O)[*:2])NCCC(=O)[*:1]; PABC = O=C(OCc1ccc(N[*:1])cc1)[*:2]; X1 = C[C@@H](N*)[C@@H](O)c1ccccc1; Hyp = O=C(O)[C@@H]1C[C@@H](O)CN1; hArg = N=C(N)NCCCC[C@H](N)C(=O)O; Cit = NC(=O)NCCC[C@H](N)C(=O)O; NMeV = CN[C@H](C(=O)O)C(C)C; hCys = N[C@@H](CCS)C(=O)O; Sar = CNCC(=O)O
Assays:
[1] = test system: PC3 cells subcutaneous transplanted tumor; experiment: Mouse PC3 cells subcutaneous in vivo transplanted tumor model; set-up: species or system CB-17 SCID mice; settings: 0.5 mg/kg intravenously, once a week, 35 days
Protocol: Human prostate cancer PC3 cells were placed in an RPMI-1640 medium (supplemented with 10% fetal bovine serum and 1% penicillin-streptomycin solution) and cultured at 37° C. Conventional digestion treatment with trypsin was carried out twice a week for passage. When the cell saturation was 80%-90%, and the number reached the requirement, the cells were collected, counted, and inoculated. Male CB-17 SCID mice (from Beijing Vital River Laboratory Animal Technology Co., Ltd.) were subcutaneously inoculated with 0.1 mL (2×10^6) of PC3 cells (plus matrigel, with the volume ratio of 1:1) on the right back. When the average tumor volume reached about 80-120 mm^3, grouping and administration were performed (marked as Day 0). For the solvent group, 50 mM of acetic acid and 10% sucrose solution (pH=5) were administered; and for the administration group, 0.5 mg/kg of compound 2, compound 4 or compound 13 was intravenously administered. The administration frequency was once a week and the administration cycle was 35 days (Day 0-Day 34). After grouping, the tumor diameter was measured twice a week with a vernier caliper. The formula for calculating the tumor volume was: V=0.5×a×b^2, where a and b represented the long and short diameters of the tumor, respectively. The tumor inhibitory effect of the compound was evaluated by TGI (%)= [1−(average tumor volume at the end of administration in the treatment group-average tumor volume at the beginning of administration in the treatment group)/(average tumor volume at the end of treatment in the solvent control group-average tumor volume at the beginning of treatment in the solvent control group)]×100%. The tumor growth curve and the animal body weight change curve were as shown in FIG. 1 and FIG. 2, respectively.

PC3 cells = experiment: PC3 cell proliferation inhibition assay; assay type: cell-based, human
Protocol: PC3 cell culture conditions: RPMI-1640+10% FBS+1% penicillin-streptomycin solution. The cells were cultured in a 37° C., 5% CO2 incubator. On the first day, the PC3 cells in the exponential growth phase were collected and plated in a 96-well cell culture plate at a density of 500 cells/well (90 μL/well). The cells were cultured overnight in a 37° C., 5% CO2 incubator. The next day, 10 μL of the compound at different concentrations was added to each well so that the final concentration of DMSO in each well was 0.1%. The mixture was cultured in a 37° C., 5% CO2 incubator for 3 days. After the completion of culture, 50 μL of detection solution (Cell Viability Assay, Promega, G7573) was added to each well. The mixture was mixed uniformly for 2 minutes and incubated at room temperature for 10 minutes. The chemiluminescence reading was detected by a microplate reader. The results were processed according to formula (1), the proliferation inhibition rate of the compound at different concentrations was calculated, and the IC50 value of the compound with an inhibition rate of 50% was calculated using origin9.2 software, wherein RLUcompound was the readout of the treated group, and RLUcontrol was the average value of the solvent control group.

[2] = Pharmacokinetic test in monkeys; settings: cynomolgus monkey, in vivo, iv, monkey plasma; for AUC(0-t) / Cmax / half-life: 1 mg/kg
Protocol: 4.1 Experimental animals: male cynomolgus monkeys, 3-5 kg, 3-6 years old, 3 monkeys/compound. Purchased from Suzhou Xishan Biotechnology Inc.
4.2 Experimental method: on the day of the test, 3 monkeys were randomly grouped according to their body weights. The animals were fasted with water available for 14 to 18 h one day before the administration, and were fed 4 h after the administration.
Solvent for intravenous administration: 5% DMA+95% (20% SBE-CD).
Before and after the administration, 1.0 mL of blood samples were drawn from the limb veins and placed in an EDTAK2 centrifuge tube. Centrifugation was carried out at 5000 rpm at 4° C. for 10 min, and the plasma was collected. The blood collection time points for the intravenous administration group were: 0, 2 min, 5 min, 15 min, 30 min, 1 h, 2 h, 4 h, 6 h, 8 h, and 24 h. Before analysis and detection, all samples were stored at −80° C., and a quantitative analysis of samples was performed using LC-MS/MS.

MOLP8 cells = experiment: MOLP8 cell proliferation inhibition assay; assay type: cell-based, human; settings: MOLP8 cells (EphA2 negative cell), incubated 5 days
Protocol: Human multiple myeloma MOLP8 cells purchased from DSMZ were placed in complete RPMI-1640 medium (supplemented with 20% fetal bovine serum) and cultured at 37° C. and 5% CO2. The cells in the exponential growth phase were collected, and the cell suspension was adjusted to 8000 cells/135 μL with the culture medium. 135 μl of the cell suspension was added to each well of a 96-well cell culture plate and incubated overnight. The next day, compounds at different concentrations were added, and the plate was placed in the incubator and incubated for 5 days. After the completion of culture, according to operation instructions for a CellTiter-Glo kit (Promega, Cat #G7573), 75 μL of CTG solution, which was already pre-melted and equilibrated to room temperature, was added to each well, and the mixture was uniformly mixed for 2 minutes using a microplate shaker. The plate was placed at room temperature for 10 minutes, and then […] signal values were measured using an Envision 2104 plate reader (PerkinElmer). The cell proliferation inhibition rate was calculated according to the formula [(1−(RLUcompound−RLUblank)/(RLUcontrol−RLUblank))×100%]. The IC50 value was obtained by four-parameter nonlinear fitting using GraphPad Prism software.

[3] = Pharmacokinetic test in rats; set-up: species or system SD rats; settings: in vivo, iv, rat plasma, i.v. 1 mg/kg, analyte PDC
Protocol: 3.1 Experimental animals: male SD rats, about 220 g, 6-8 weeks old, 3 rats/compound. Purchased from Chengdu Ddossy Experimental Animals Co., Ltd.
3.2 Experimental design: on the day of the test, 3 SD rats were randomly grouped according to their body weights. The animals were fasted with water available for 12 to 14 h one day before the administration, and were fed 4 h after the administration.
Before and after the administration, 0.15 m1 of blood was taken from the orbit of the animals under isoflurane anesthesia and placed in an EDTAK2 centrifuge tube. The blood was centrifuged at 5000 rpm and 4° C. for 10 min to collect plasma. The blood collection time points for the intravenous administration group and intragastric administration group were: 0, 5 min, 15 min, 30 min, 1 h, 2 h, 4 h, 6 h, 8 h and 24 h. Before analysis and detection, all samples were stored at −80° C., and a quantitative analysis of samples was performed using LC-MS/MS.

[4] = i.v. 1 mg/kg of compound 4, analyte MMAE

With `CC[C@H](C)[C@@H]([C@@H](CC(=O)N1CCC[C@H]1[C@H](OC)[C@@H](C)C(=O)N[C@H](C)[C@@H](O)c1ccccc1)OC)N(C)C(=O)[C@@H](NC(=O)[C@H](C(C)C)N(C)C(=O)OCc1ccc(NC(=O)[C@H](CCCNC(N)=O)NC(=O)[C@@H](NC(=O)CCCC(=O)NCCC(=O)N(C)CC(=O)N(C)CC(=O)N(C)CC(=O)N(C)CC(=O)N(C)CC(=O)N(C)CC(=O)N(C)CC(=O)N(C)CC(=O)N(C)CC(=O)N(C)CC(=O)N[C@@H](C)C(=O)N[C@@H](CCCCNC(=N)N)C(=O)N[C@@H](CC(=O)O)C(=O)N[C@H]2CSCCC(=O)N3CN4CN(C3)C(=O)CCSC[C@H](NC(=O)[C@H](CC(C)C)NC(=O)[C@@H]3CCCN3C(=O)[C@H](CC(N)=O)NC(=O)[C@H](C(C)C)NC(=O)[C@H](CC(C)C)NC(=O)[C@@H]3C[C@@H](O)CN3C2=O)C(=O)N[C@@H](CC(C)C)C(=O)N[C@@H](Cc2c[nH]cn2)C(=O)N2CCC[C@H]2C(=O)N[C@H](CC(=O)O)C(=O)N[C@@H](Cc2c[nH]c3ccccc23)C(=O)N[C@@H](CCCCNC(=N)N)C(=O)N[C@H](C(N)=O)CCSCCC4=O)C(C)C)cc1)C(C)C` [Compound 2] (I: [Sar][Sar][Sar][Sar][Sar][Sar][Sar][Sar][Sar][Sar]A[hArg]DC[Hyp]LVNPLCLHP[dD]W[hArg][hCys]-NH2 / II: V[Cit][PABC][NMeV]V[Dil][Dolaproine]-X1; linker I:14-I:21-I:28 via TATA; linker I:N-II:N via X2) the tolerability [1] was “well tolerated” and the IC50 (PC3 cells; read-out: IC50 value) was 3.1 nM.
With `CC[C@H](C)[C@@H]([C@@H](CC(=O)N1CCC[C@H]1[C@H](OC)[C@@H](C)C(=O)N[C@H](C)[C@@H](O)c1ccccc1)OC)N(C)C(=O)[C@@H](NC(=O)[C@H](C(C)C)N(C)C(=O)OCc1ccc(NC(=O)[C@H](CCCNC(N)=O)NC(=O)[C@@H](NC(=O)CCCC(=O)NCCC(=O)N(C)CC(=O)N(C)CC(=O)N(C)CC(=O)N(C)CC(=O)N(C)CC(=O)N(C)CC(=O)N(C)CC(=O)N(C)CC(=O)N(C)CC(=O)N(C)CC(=O)N[C@@H](C)C(=O)N[C@@H](CCCCNC(=N)N)C(=O)N[C@@H](CC(=O)O)C(=O)N[C@H]2CCSCCC(=O)N3CN4CN(C3)C(=O)CCSC[C@H](NC(=O)[C@H](CC(C)C)NC(=O)[C@@H]3CCCN3C(=O)[C@H](CC(N)=O)NC(=O)[C@H](C(C)C)NC(=O)[C@H](CC(C)C)NC(=O)[C@@H]3C[C@@H](O)CN3C2=O)C(=O)N[C@@H](CC(C)C)C(=O)N[C@@H](Cc2c[nH]cn2)C(=O)N2CCC[C@H]2C(=O)N[C@H](CC(=O)O)C(=O)N[C@@H](Cc2c[nH]c3ccccc23)C(=O)N[C@@H](CCCCNC(=N)N)C(=O)N[C@H](C(N)=O)CSCCC4=O)C(C)C)cc1)C(C)C` [Compound 4] (I: [Sar][Sar][Sar][Sar][Sar][Sar][Sar][Sar][Sar][Sar]A[hArg]D[hCys][Hyp]LVNPLCLHP[dD]W[hArg]C-NH2 / II: V[Cit][PABC][NMeV]V[Dil][Dolaproine]-X1; linker I:14-I:21-I:28 via TATA; linker I:N-II:N via X2) the AUC(0-t) [2, 4] was 20.8 ng·h/mL, the Cmax [2, 4] was 3.71 ng/mL and the half-life [2, 4] was 1460 min. The AUC(0-t) ([2]; i.v. 1 mg/kg, analyte PDC) was 3030 ng·h/mL, the Cmax ([2]; i.v. 1 mg/kg, analyte PDC) was 7630 ng/mL and the half-life ([2]; i.v. 1 mg/kg, analyte PDC) was 38.6 min. The clearance ([2]; i.v. 1 mg/kg, analyte PDC) was 5.57 mL/min/kg, the Vd ([2]; i.v. 1 mg/kg, analyte PDC, read-out: Vdss) was 0.179 L/kg and the IC50 (MOLP8 cells) was 144 nM. The tolerability [1] was “well tolerated”, the IC50 (PC3 cells; read-out: IC50 value) was 2.9 nM and the AUC(0-t) [3] was 1470 ng·h/mL. It also gave a Cmax [3] of 6530 ng/mL, a clearance [3] of 11 mL/min/kg and a half-life [3] of 16.3 min. It also gave a Vd ([3]; read-out: Vdss) of 0.233 L/kg.
With `CC[C@H](C)[C@@H]([C@@H](CC(=O)N1CCC[C@H]1[C@H](OC)[C@@H](C)C(=O)N[C@H](C)[C@@H](O)c1ccccc1)OC)N(C)C(=O)[C@@H](NC(=O)[C@H](C(C)C)N(C)C(=O)OCc1ccc(NC(=O)[C@H](CCCNC(N)=O)NC(=O)[C@@H](NC(=O)CCCC(=O)NCCC(=O)N(C)CC(=O)N(C)CC(=O)N(C)CC(=O)N(C)CC(=O)N(C)CC(=O)N(C)CC(=O)N(C)CC(=O)N(C)CC(=O)N(C)CC(=O)N(C)CC(=O)N[C@@H](C)C(=O)N[C@@H](CCCCNC(=N)N)C(=O)N[C@@H](CC(=O)O)C(=O)N[C@H]2CCSCCC(=O)N3CN4CN(C3)C(=O)CCSC[C@H](NC(=O)[C@H](CC(C)C)NC(=O)[C@@H]3CCCN3C(=O)[C@H](CC(N)=O)NC(=O)[C@H](C(C)C)NC(=O)[C@H](CC(C)C)NC(=O)[C@@H]3C[C@@H](O)CN3C2=O)C(=O)N[C@@H](CC(C)C)C(=O)N[C@@H](Cc2c[nH]cn2)C(=O)N2CCC[C@H]2C(=O)N[C@H](CC(=O)O)C(=O)N[C@@H](Cc2c[nH]c3ccccc23)C(=O)N[C@@H](CCCCNC(=N)N)C(=O)N[C@H](C(N)=O)CCSCCC4=O)C(C)C)cc1)C(C)C` [Compound 13] (I: [Sar][Sar][Sar][Sar][Sar][Sar][Sar][Sar][Sar][Sar]A[hArg]D[hCys][Hyp]LVNPLCLHP[dD]W[hArg][hCys]-NH2 / II: V[Cit][PABC][NMeV]V[Dil][Dolaproine]-X1; linker I:14-I:21-I:28 via TATA; linker I:N-II:N via X2) the tolerability [1] was “well tolerated”.
In the case of “I: [Sar][Sar][Sar][Sar][Sar][Sar][Sar][Sar][Sar][Sar]A[hArg]D[hCys][Hyp]LVNPLCLHP[dD]W[hArg]C-NH2 / II: V[Cit][PABC][NMeV]V[Dil][Dolaproine]-X1 / III: V[Cit][PABC][NMeV]V[Dil][Dolaproine]-X1 (linker I:14-I:21-I:28 via TATA; linker I:N-II:N-III:N via X3) [Compound 17]”, the “Max inh. % 10 μM” value (PC3 cells; 10 μM) is reported as 69.4%, the IC50 (PC3 cells; cultured 3 days with compound, read-out: IC50) is reported as no more than 10 nM and the IC50 (PC3 cells; read-out: IC50 value) is reported as 1 nM.
